Test results: patent US20070020258A1

B1: MAE13 (antibody, V domains shown)
VH: DVQLQESGPGLVKPSQSLSLTCTVTGYTITSDNAWNWIRQFPGNKLEWMGYINHSGTTSYNPSLKSRISITRDTSKNQFFLQLNSVTTEDTATYYCAWVVAYAMDYWGQGTSVTVSS
VL: DIVMTQSQKFMSTSVGDRVSVTCKASQNVSSNVAWYQQKPGQSPKALIYSASYRYSGVPDRFTGSGSGTDFTLTISNVQSEDLAEYFCQQYYTYPLYTFGGGTKLEIKR
B2: MAE15 (antibody, V domains shown)
VH: DVQHQESEPDLVKPSQSLSLTCTVTGYSITSGYNRHWIRQFPGNKLEWMGYIHYSGSTNYNPSLKRRISITRDTSKNQFFLQLNSVTTEDTATYYCARGSIYYYGSRYRYFDVWGAGTTVTVSS
VL: DIQLTQSPASLAVSLGQRATISCKASQSVDYDGDSYMNWYQQKPGQPPKLLIYAASNLESGIPARFSGSGSGTDFTLNIHPVEEEDAATYYCQQSNEDPFTFGAGT
B3: MAE11 (antibody, V domains shown)
VH: DVQLQESGPGLVKPSQSLSLACSVTGYSITSGYSWNWIRQFPGNKLEWMGSITYDGSSNYNPSLKNRISVTRDTSQNQFFLKLNSATAEDTATYYCARGSHYFGHWHFAVWGAGTTVTVSS
VL: DIVLTQSPASLAVSLGQRATISCKASQSVDYDGDSYMNWYQQKPGQPPILLIYAASYLGSEIPARFSGSGSGTDFTLNIHPVEEEDAATFYCQQSHEDPYTFGAGTKLEIK

Each binder was assayed against membrane IgE on U266 B1 cells (human) (UniProt P01854) (assay: FACS, U266 B1 cells).

EC50 [µg/mL]	Binder
1	B1
6	B2
0.15	B3
